Target: T1, TRF2 (human), Q15554
T1 chain: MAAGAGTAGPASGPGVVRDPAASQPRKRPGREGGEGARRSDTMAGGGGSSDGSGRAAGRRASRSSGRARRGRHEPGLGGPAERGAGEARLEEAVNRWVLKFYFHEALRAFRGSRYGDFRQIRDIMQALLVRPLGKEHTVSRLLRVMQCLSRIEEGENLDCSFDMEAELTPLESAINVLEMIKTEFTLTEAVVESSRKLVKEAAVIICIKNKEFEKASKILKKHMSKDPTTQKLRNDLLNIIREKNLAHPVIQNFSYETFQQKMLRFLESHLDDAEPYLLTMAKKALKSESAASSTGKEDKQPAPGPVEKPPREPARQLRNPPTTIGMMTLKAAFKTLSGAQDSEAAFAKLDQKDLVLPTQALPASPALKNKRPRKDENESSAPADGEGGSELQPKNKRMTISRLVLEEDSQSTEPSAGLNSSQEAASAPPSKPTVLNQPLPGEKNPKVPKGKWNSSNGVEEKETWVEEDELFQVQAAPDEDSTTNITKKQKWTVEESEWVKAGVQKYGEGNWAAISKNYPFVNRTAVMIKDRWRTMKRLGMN
Settings: remark: other sources report otherwise

B1: TRF2, Q15554 1-542 (natural protein)
chain: T1 chain
**Q.** How did the stoichiometry N turn out when B1 was run?
**A.** 2

From doi:10.1101/2021.04.30.442189
